What all share (assay): SPR; biotinylated ADO or ADO mutant immobilised on a Biotin CAP chip (~2500-3000 RU), substrate peptide injected; Biacore T200, 4 °C; 20 mM HEPES pH 7.5, 500 mM NaCl, 10 mM DTT, 0.1% tween-20; 50 µL/minute; multi-cycle or single-cycle mode not given; each cell is one of three independent measurements
Settings in all cases: both partners purified
(In general: SPR reads the build-up and loss of mass on a sensor chip optically.)

Assay [1] addresses T1, ADO-Y212F, N-terminally His-tagged and biotinylated (human, UniProt Q96SZ5 1-270, Y212F, biotin (biotinylated during expression)).
T1 construct: 2-aminoethanethiol dioxygenase (ADO), human, UniProt Q96SZ5, full length, site-directed mutant; source: E. coli Rosetta2(DE3), purified (Ni-NTA, SEC); not shown: biotinylation tag (from the vector pQE80L-Navi), N-terminal, kept
T1 sequence (looked up): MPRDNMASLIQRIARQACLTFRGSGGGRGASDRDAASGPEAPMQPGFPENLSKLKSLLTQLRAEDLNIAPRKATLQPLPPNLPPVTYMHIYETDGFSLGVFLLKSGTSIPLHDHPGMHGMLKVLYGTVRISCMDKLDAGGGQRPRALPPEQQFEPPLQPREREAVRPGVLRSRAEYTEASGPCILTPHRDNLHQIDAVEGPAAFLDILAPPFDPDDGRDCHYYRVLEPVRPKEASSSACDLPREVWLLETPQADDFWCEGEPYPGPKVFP

The target of assay [2] is T2, ADO-Y87A, N-terminally His-tagged and biotinylated (human, UniProt Q96SZ5 1-270, Y87A, biotin (biotinylated during expression)).
T2 construct: 2-aminoethanethiol dioxygenase (ADO), human, UniProt Q96SZ5, full length, site-directed mutant; source: E. coli Rosetta2(DE3), purified (Ni-NTA, SEC); not shown: biotinylation tag (from the vector pQE80L-Navi), N-terminal, kept
T2 sequence (looked up): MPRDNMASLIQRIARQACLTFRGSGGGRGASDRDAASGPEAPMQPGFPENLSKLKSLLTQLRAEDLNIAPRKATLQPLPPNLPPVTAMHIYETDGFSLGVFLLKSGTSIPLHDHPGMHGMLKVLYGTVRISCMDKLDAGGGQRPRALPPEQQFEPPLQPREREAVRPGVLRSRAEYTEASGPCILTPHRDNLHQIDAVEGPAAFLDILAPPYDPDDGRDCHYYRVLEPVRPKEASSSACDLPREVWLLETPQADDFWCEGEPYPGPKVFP

Assay [3] deals with T3, ADO-Y212A, N-terminally His-tagged and biotinylated (human, UniProt Q96SZ5 1-270, Y212A, biotin (biotinylated during expression)).
T3 construct: 2-aminoethanethiol dioxygenase (ADO), human, UniProt Q96SZ5, full length, site-directed mutant; source: E. coli Rosetta2(DE3), purified (Ni-NTA, SEC); not shown: biotinylation tag (from the vector pQE80L-Navi), N-terminal, kept
T3 sequence (looked up): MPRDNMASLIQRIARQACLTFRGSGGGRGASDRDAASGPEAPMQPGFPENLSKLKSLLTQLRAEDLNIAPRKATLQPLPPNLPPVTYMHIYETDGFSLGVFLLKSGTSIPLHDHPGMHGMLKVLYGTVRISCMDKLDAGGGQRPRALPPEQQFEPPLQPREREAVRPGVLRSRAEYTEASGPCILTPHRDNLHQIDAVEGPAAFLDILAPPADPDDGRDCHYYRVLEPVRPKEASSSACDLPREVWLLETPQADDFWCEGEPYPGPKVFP

Assay [4] has as its target T4, ADO-F101A, N-terminally His-tagged and biotinylated (human, UniProt Q96SZ5 1-270, F101A, biotin (biotinylated during expression)).
T4 construct: 2-aminoethanethiol dioxygenase (ADO), human, UniProt Q96SZ5, full length, site-directed mutant; source: E. coli Rosetta2(DE3), purified (Ni-NTA, SEC); not shown: biotinylation tag (from the vector pQE80L-Navi), N-terminal, kept
T4 sequence (looked up): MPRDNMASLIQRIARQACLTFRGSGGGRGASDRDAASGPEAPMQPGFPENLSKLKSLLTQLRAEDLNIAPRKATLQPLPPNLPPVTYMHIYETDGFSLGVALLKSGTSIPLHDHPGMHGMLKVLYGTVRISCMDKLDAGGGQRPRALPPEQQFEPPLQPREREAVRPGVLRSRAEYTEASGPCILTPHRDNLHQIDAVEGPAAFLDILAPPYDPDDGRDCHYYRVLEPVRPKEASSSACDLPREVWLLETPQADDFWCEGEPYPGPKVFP

The target in assay [5] is T5, ADO-C220A, N-terminally His-tagged and biotinylated (human, UniProt Q96SZ5 1-270, C220A, biotin (biotinylated during expression)).
T5 construct: 2-aminoethanethiol dioxygenase (ADO), human, UniProt Q96SZ5, full length, site-directed mutant; source: E. coli Rosetta2(DE3), purified (Ni-NTA, SEC); not shown: biotinylation tag (from the vector pQE80L-Navi), N-terminal, kept
T5 sequence (looked up): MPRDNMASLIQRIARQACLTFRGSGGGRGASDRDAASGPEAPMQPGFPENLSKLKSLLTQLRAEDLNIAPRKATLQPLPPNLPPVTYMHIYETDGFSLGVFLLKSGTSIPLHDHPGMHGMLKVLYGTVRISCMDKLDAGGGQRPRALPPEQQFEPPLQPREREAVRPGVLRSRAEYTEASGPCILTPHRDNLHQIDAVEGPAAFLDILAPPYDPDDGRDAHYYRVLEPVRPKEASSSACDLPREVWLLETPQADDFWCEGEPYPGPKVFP

Where “and” joins values, the source holds several entries; their conditions need not be identical. Equal values may be shown once.

B1: RGS5(2-15), synthetic peptide corresponding to the methionine excised N-terminus of RGS5, residues 2 to 15 (peptide, UniProt O15539 2-15, looked up)
peptide: CKGLAALPHSCLER
notes: regulator of G-protein signalling 5 (RGS5), residues 2 to 15 (N-terminal Cys exposed); UniProt O15539 is printed for the full-length human protein; also called 14-mer RGS5; source: synthetic peptide
Usually Kd stands for the equilibrium constant for the complex coming apart. For the molecule B1, the Kd in assay [1] is 19.9 µM and 24.5 µM and 29.2 µM; in assay [2], 1.48 µM and 1.65 µM and 1.84 µM; in assay [3] it was 66.5 µM and 90.3 µM and 63.1 µM; in assay [4] it was 42.7 µM and 46.3 µM and 52.3 µM; in assay [5], 0.96 µM and 1.12 µM and 1.31 µM.

Source of the values: PMC12098869, “An mRNA-display derived cyclic peptide scaffold reveals the substrate binding interactions of an N-terminal cysteine oxidase” (Nature Communications, 2025).
